# T1: human CD20 on HEK293 cells (Retrogenix array) (human, UniProt P11836 1-297)
# T1 construct: whole, on cells
# T1 sequence (looked up): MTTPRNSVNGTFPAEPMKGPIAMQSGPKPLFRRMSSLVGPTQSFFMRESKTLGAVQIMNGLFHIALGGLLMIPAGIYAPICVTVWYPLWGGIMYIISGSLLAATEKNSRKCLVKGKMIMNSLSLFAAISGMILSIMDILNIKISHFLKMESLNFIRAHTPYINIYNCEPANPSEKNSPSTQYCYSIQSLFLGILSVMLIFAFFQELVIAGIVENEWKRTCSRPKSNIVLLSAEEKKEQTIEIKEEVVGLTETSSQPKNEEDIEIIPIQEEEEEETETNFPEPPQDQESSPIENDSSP
# B1: chimeric rabbit/human IgG1 XBR2-401 (antibody, V domains shown)
# VH: QSVKESEGGLFKPTDTLTLTCTVSGFSLSSYGVTWVRQAPGSGLEWIGYINTAGNTYYASWAKSRSTITRNTNENTVTLKMTSLTAADTATYFCARDWTSLNIWGPGTLVTVSS
# VL: DPMLTQTPSSTSTAVGDTVTIKCQASQSISSDLSWYQQKPGQRPKLLIYQASTLASGVPSRFKGSGYGTEYTLTISGVQREDAAIYYCLGGYADASYRTAFGGGTKLEIK
# Biological target: T1, human CD20 on HEK293 cells (Retrogenix …)
# Test: Retrogenix cell microarray, identical slides of fixed HEK293 cells, AlexaFluor647 anti-human IgG Fc
binder,measurement,value
B1,binding result,no binding (tested: 20 µg/mL)
